US20150216891A1 (INSTITUT NATIONAL DE LA SANTE ET DE LA RECHERCHE MEDICALE …, published 2015)

Target: T1, Translationally-Controlled Tumor Protein (TCTP) (human, UniProt P13693 1-172)
T1 construct: Endogenous TCTP in LNCaP cell lysates, immunoprecipitated with rabbit anti-TCTP antibody (Abcam); also called translationally-controlled tumour protein
T1 sequence: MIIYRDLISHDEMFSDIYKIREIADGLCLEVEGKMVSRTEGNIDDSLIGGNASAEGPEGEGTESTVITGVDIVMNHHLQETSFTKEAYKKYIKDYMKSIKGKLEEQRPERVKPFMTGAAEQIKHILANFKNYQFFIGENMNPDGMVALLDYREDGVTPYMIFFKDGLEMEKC
Experiment: not named at this place (co-immunoprecipitation of Example 12)

B1: Hsp27 C1 deletion mutant (amino acids 93 to 205 of SEQ ID NO: 16), histidine-tagged (other, not shown: small tags and cut ends)
chain: DRWRVSLDVNHFAPDERTVKTKDGVVEISGKHEELQDEHGYISRCFTRKYTLPPGVDPTQVSSSLSPEGTLTVEAPMPKLATQSNEITIPVTFESRAQLGGPEAAKSDETAAK
notes: Transiently expressed in LNCaP cells
binding result: binds
